Results as given in PMC5686545.

B1: mCherry-Lis1 (human Lissencephaly-1) (natural protein)
chain: MVLSQRQRDELNRAIADYLRSNGYEEAYSVFKKEAELDVNEELDKKYAGLLEKKWTSVIRLQKKVMELESKLNEAKEEFTSGGPLGQKRDPKEWIPRPPEKYALSGHRSPVTRVIFHPVFSVMVSASEDATIKVWDYETGDFERTLKGHTDSVQDISFDHSGKLLASCSADMTIKLWDFQGFECIRTMHGHDHNVSSVAIMPNGDHIVSASRDKTIKMWEVQTGYCVKTFTGHREWVRMVRPNQDGTLIASCSNDQTVRVWVVATKECKAELREHEHVVECISWAPESSYSSISEATGSETKKSGKPGPFLLSGSRDKTIKMWDVSTGMCLMTLVGHDNWVRGVLFHSGGKFILSCADDKTLRVWDYKNKRCMKTLNAHEHFVTSLDFHKTAPYVVTGSVDQTVKVWECR

How the values were obtained:
[1] = target: microtubules of porcine brain tubulin (pig (endogenous in brain)) (UniProt P02550)
[2] = target: GFP-tagged human cytoplasmic dynein complex (human) (UniProt Q14204); assay: TIRF microscopy of purified proteins on static GMPCPP microtubules (single-particle colocalisation); 5 nM GFP-dynein, 10 nM pig dynactin, 200 nM BicD2-N, 50 nM mCherry-Lis1; immobilised GMPCPP microtubules; HEPES-based buffer (60 mM HEPES pH 7.4, 50 mM K-acetate, 2 mM MgCl2, 10% glycerol, 2 mM ATP)
[3] = target: GFP-tagged human cytoplasmic dynein complex (human) (UniProt Q14204); assay: TIRF microscopy of purified proteins on static GMPCPP microtubules (single-particle colocalisation); 5 nM GFP-dynein, 10 nM pig dynactin, 200 nM BicD2-N, 50 nM mCherry-Lis1; immobilised GMPCPP microtubules; assay buffer AB

Row | Molecule | initiation probability of processive DDB runs within the first 360 nm from the growing microtubule plus end, without EB1 (average 0.05 per 360 nm segment anywhere on the microtubule) [1] | percent of processive DDB particles with Lis1 bound [2] [%] | percent of processive DDB particles with Lis1 bound [3] [%]
1 | native dynactin complex from pig brain (from UniProt A0A287B8J2 1-1281; A0A5G2QD80 1-405; F2Z5G5 1-349) | 0.33 | – | –
2 | B1 | – | 16 | 9
